One series relates to DU145 cells. In words: ADC assay combining anti-GPC-1 antibody and MMAF binding secondary antibody in DU145 cells. The series is classed as cell-based.
In series [1] the test system is TE4, TE5, TE6, TE8, TE9, TE10, TE11, TE14, TE15, HeLa, ME180. In words: In vitro antitumor effect of unlabeled antibody (CellTiter-Glo). The series is classed as cell-based. The note with it: 6 days. On the procedure:
2000 cells were added to a 96-well plate at 90 μl. The cells were cultured overnight at 37° C. in a 5% CO2 incubator. The next day, 10 μl of an unlabeled primary antibody concentrated […] relative to the final concentration was added to each well, so that the total amount was 100 μl. The cells were cultured for 6 days at 37° C. in a 5% CO2 incubator. The cell viability was measured by using a CellTiter-Glo Luminescent Cell Viability Assay reagent to detect the amount of ATP.

The next series has as its system ME180 cells. The series can be described thus: In vitro ADC assay, ME180 cells. It counts as cell-based. The note with it: ME180, 144 hours. On the procedure: (§1) Preparation of a conjugate of mouse anti-Glypican-1 mAb (01a033), mouse IgG2a (biolegend #400224) as a control, and mc-vc-PAB-MMAF was commissioned to MORADEC. An anticancer agent was conjugated to a cysteine residue via a cleavable linker. The DAR (drug-antibody ratio) was as follows. GPC1-CL-MMAF DAR=3.8, mouse IgG2a-CL-MMAF DAR=4.1.
(§2) (1) The cells were seeded on Thermo Fisher Scientific's 96-well white plate (model no.: 136101) (90 μl cell suspension). RPMI1640+10% FBS+100 U/ml penicillin+100 μg/ml streptomycin was used as the medium. The cells were seeded in 60 wells, and 100 μL of medium was added to 36 wells, and cultured in a 5% CO2 incubator at 37° C. (2) The next day, 10 μL of ADC was added to the cells (total amount: 100 μL). (3) After 144 hours of culture, a CellTiter-Glo™ Luminescence Cell Viability Assay reagent (Promega) was added and mixed at 100 μL/well. (4) Measurements were taken with a plate reader. (5) Analysis was conducted with GraphPad Prism 6.
(§3) The IC50 values were calculated from the following equation (Hossain M M, Hosono-Fukao T, Tang R, Sugaya N, van Kuppevelt T H, Jenniskens G J, Kimata K, Rosen S D, Uchimura K (2010) Direct detection of HSulf-1 and HSulf-2 activities on extracellular heparan sulphate and their inhibition by PI-88. Glycobiology 20(2): 175-186.)
(§4) IC50=10^(Log [A][B]×(50−C)/(D−C)+Log [B]) […]

Another series has as its system HeLa cells. The series can be described thus: In vitro ADC assay, HeLa cells. It counts as cell-based. The note with it: 144 hours. On the procedure: as §1, §2, §3, §4
The subject of the next series is BxPC3 cells. The series can be described thus: In vitro ADC assay, BxPC3 cells. The series is classed as cell-based, human. The note with it: BxPC3, 144 hours. On the procedure:
as §1, §2, §3, §4

Another series concerns T3M4 cells. In words: In vitro ADC assay, T3M4 cells. The series is classed as cell-based, human. The note with it: T3M4, 144 hours. The method, then: as §1, §2, §3, §4
The test system of another series is LK2 cells. In words: In vitro ADC assay, LK2 cells. It counts as cell-based, human. The note with it: 144 hours; LK2 hardly express GPC1. The method, then:
as §1, §2, §3, §4

The subject of another series is BxPC3 cell strain. The series can be described thus: In vivo efficacy test on GPC1 ADC using pancreatic cancer cell strain BxPC3 in SCID mice. Also noted: species or system mouse. The method, then:
Specifically, 5.0×10^6 cells of the BxPC3 cell strain were subcutaneously grafted into female SCID mice. […] The tumor volume and body weight were measured on day 0, day 4, day 8, day 12, day 16, day 20, day 24, day 28, day 32, and day 36.
After subcutaneous tumorigenesis of BxPC3, (1) PBS, (2) control ADC at 10 mg/kg, and (3) GPC1-ADC at 1 mg/kg, 3 mg/kg, and 10 mg/kg were administered once into the tail vein. The tumor was extracted after 24 hours. After deparaffinization of a section of a paraffin embedded tissue, the slice was dehydrated with alcohol.
Immunohistochemical staining on Phospho-Histon H3 (Ser10) was performed using an anti-Phospho-Histon H3 (Ser10) antibody (Cell Signaling Technology: #9701) and ChemMate Envision kit HRP 500T (Dako: K5007).

B1: clone 01a033 (antibody)
heavy: QVQLKQSGPELVKPGASVKISCKASGYSFTGYYMHWVKQSPEKSLEWIGEINPSTGDTTYNQKFKAKATLTVDKSSSTAYMQLKSLTSEDSAVYYCAREKRDDGVFAYWGQGTLVTVSSAKTTAPSVYPLAPVCGDTTGSSVTLGCLVKGYFPEPVTLTWNSGSLSSGVHTFPAVLQSDLYTLSSSVTVTSSTWPSQSITCNVAHPASSTKVDKKIEPRGPTIKPCPPCKCPAPNLLGGPSVFIFPPKIKDVLMISLSPIVTCVVVDVSEDDPDVQISWFVNNVEVHTAQTQTHREDYNSTLRVVSALPIQHQDWMSGKEFKCKVNNKDLPAPIERTISKPKGSVRAPQVYVLPPPEEEMTKKQVTLTCMVTDFMPEDIYVEWTNNGKTELNYKNTEPVLDSDGSYFMYSKLRVEKKNWVERNSYSCSVVHEGLHNHHTTKSFSRTPGK
light: DIVMSQSPKSMSMSVGERVALSCKASENVGTYVSWYQQKPEQSPKLLIYGASNRYTGVPDRFTGSGSATDFTLTISSVQAEDLADYYCGQSYSYPLTFGAGTKLELKRADAAPTVSIFPPSSEQLTSGGASVVCFLNNFYPKDINVKWKIDGSERQNGVLNSWTDQDSKDSTYSMSSTLTLTKDEYERHNSYTCEATHKTSTSPIVKSFNRNEC
As to B1, the “activity compared to MIL-38” value with DU145 cells (DU145 cells) is reported as 37 fold. Besides, the “growth suppressing effect against DU145 cells” value with DU145 cells (primary antibody plus MMAF secondary antibody 2 μg/ml, 3 days) is on record as “high growth suppressing effect”. Also, the “EC50 values against DU145 cells” value in the series on DU145 cells (primary antibody plus MMAF secondary antibody, 3 days) is given as “excellent EC50 values”. Further, the “antitumor effect in vitro” value in series [1] was “not observed against any cell strain”.

B2: GPC1 ADC (conjugate)
heavy: QVQLKQSGPELVKPGASVKISCKASGYSFTGYYMHWVKQSPEKSLEWIGEINPSTGDTTYNQKFKAKATLTVDKSSSTAYMQLKSLTSEDSAVYYCAREKRDDGVFAYWGQGTLVTVSSAKTTAPSVYPLAPVCGDTTGSSVTLGCLVKGYFPEPVTLTWNSGSLSSGVHTFPAVLQSDLYTLSSSVTVTSSTWPSQSITCNVAHPASSTKVDKKIEPRGPTIKPCPPCKCPAPNLLGGPSVFIFPPKIKDVLMISLSPIVTCVVVDVSEDDPDVQISWFVNNVEVHTAQTQTHREDYNSTLRVVSALPIQHQDWMSGKEFKCKVNNKDLPAPIERTISKPKGSVRAPQVYVLPPPEEEMTKKQVTLTCMVTDFMPEDIYVEWTNNGKTELNYKNTEPVLDSDGSYFMYSKLRVEKKNWVERNSYSCSVVHEGLHNHHTTKSFSRTPGK
light: DIVMSQSPKSMSMSVGERVALSCKASENVGTYVSWYQQKPEQSPKLLIYGASNRYTGVPDRFTGSGSATDFTLTISSVQAEDLADYYCGQSYSYPLTFGAGTKLELKRADAAPTVSIFPPSSEQLTSGGASVVCFLNNFYPKDINVKWKIDGSERQNGVLNSWTDQDSKDSTYSMSSTLTLTKDEYERHNSYTCEATHKTSTSPIVKSFNRNEC
As to B2, the “effect of suppressing cell growth” value in the series on ME180 cells, in the series on HeLa cells, in the series with BxPC3 cells and in the series with T3M4 cells was “exhibits an effect of suppressing cell growth” in each case. For the same molecule, the “antitumor effect against LK2 cells” value in the series with LK2 cells is on record as “hardly exhibited”. Besides, the tumor volume entry with BxPC3 cell strain (3 mg/kg iv day 0, 4, 8, 12) is recorded as “tumor volume was significantly reduced”; with BxPC3 cell strain (10 mg/kg iv day 0, 4, 8, 12) it was “tumor volume was significantly reduced”. In addition, the “change in the body weight” value with BxPC3 cell strain (any dosage tested (1, 3, 10 mg/kg)) is on record as “significant change in the body weight was not observed”. Also, the “antitumor effect (tumor volume, tumor weight day 36)” value with BxPC3 cell strain (iv day 0, 4, 8, 12, anti-GPC1 ADC 1, 3, 10 mg/kg (all groups), control ADC 10 mg/kg) is listed as “significant antitumor effect”. The “G2/M phase arrest in tumor tissue (Phospho-Histon H3 (Ser10) staining)” value in the series with BxPC3 cell strain (single tail vein dose 1, 3, 10 mg/kg, tumor extracted after 24 hours) is on record as “resulted in G2/M phase arrest”.

The record behind these values is patent US20200308299A1, “ANTI-GPC-1 ANTIBODY” (National University Corporation Kochi University, priority 2017, published 2020).
